Experimental data reported in US8840891 (RSR, dated 2014).
Like-named read-outs stand apart in the source and are kept apart here.

What was measured:
Assay in all cases: cell-based or functional assay
[1] = target: TSHR with Thr104 mutated to Alanine (human) (UniProt P16473)
[2] = target: wild type human TSHR (human) (UniProt P16473)
[3] = target: TSHR with Ser281 mutated to Alanine (human) (UniProt P16473)
[4] = target: wild type human TSHR (human) (UniProt P16473); remark: listed apart in the source

For 5C9 IgG (antibody), which Mutated/wild type (%); 5C9 0.01 µg/mL + TSH [1] is on record?
The Mutated/wild type (%); 5C9 0.01 µg/mL + TSH was 95%.

What about the Mutated/wild type (%); 5C9 0.1 µg/mL + TSH [1] of the same substance?
The Mutated/wild type (%); 5C9 0.1 µg/mL + TSH was 134%.

And the Mutated/wild type (%); 5C9 1.0 µg/mL + TSH [1]?
The Mutated/wild type (%); 5C9 1.0 µg/mL + TSH was 168%.

And the Mutated/wild type (%); 5C9 10 µg/mL + TSH [1]?
The Mutated/wild type (%); 5C9 10 µg/mL + TSH was 172%.

And the Mutated/wild type (%); 5C9 100 µg/mL + TSH [1]?
The Mutated/wild type (%); 5C9 100 µg/mL + TSH was 140%.

What about the Mutated/wild type (%); 5C9 100 µg/mL only [1] of the same substance?
The Mutated/wild type (%); 5C9 100 µg/mL only was 135%.

What about the cyclic AMP; 5C9 0.01 µg/mL + TSH (fmol/cell well) [1] of the same substance?
Its cyclic AMP; 5C9 0.01 µg/mL + TSH (fmol/cell well) is 11700.

And the cyclic AMP; 5C9 0.1 µg/mL + TSH (fmol/cell well) [1]?
The cyclic AMP; 5C9 0.1 µg/mL + TSH (fmol/cell well) was 9510.

What about the cyclic AMP; 5C9 1.0 µg/mL + TSH (fmol/cell well) [1] of the same substance?
The cyclic AMP; 5C9 1.0 µg/mL + TSH (fmol/cell well) was 6200.

And the cyclic AMP; 5C9 10 µg/mL + TSH (fmol/cell well) [1]?
Its cyclic AMP; 5C9 10 µg/mL + TSH (fmol/cell well) is 3090.

And the cyclic AMP; 5C9 100 µg/mL + TSH (fmol/cell well) [1]?
The cyclic AMP; 5C9 100 µg/mL + TSH (fmol/cell well) was 3110.

What about the cyclic AMP; 5C9 100 µg/mL only (fmol/cell well) [1] of the same substance?
The cyclic AMP; 5C9 100 µg/mL only (fmol/cell well) was 264.

And the cyclic AMP; 5C9 0.01 µg/mL + TSH (fmol/cell well) [2]?
Its cyclic AMP; 5C9 0.01 µg/mL + TSH (fmol/cell well) is 12300.

What about the cyclic AMP; 5C9 1.0 µg/mL + TSH (fmol/cell well) [2] of the same substance?
Its cyclic AMP; 5C9 1.0 µg/mL + TSH (fmol/cell well) is 3700.

And the cyclic AMP; 5C9 10 µg/mL + TSH (fmol/cell well) [2]?
Its cyclic AMP; 5C9 10 µg/mL + TSH (fmol/cell well) is 1800.

What about the cyclic AMP; 5C9 100 µg/mL + TSH (fmol/cell well) [2] of the same substance?
Its cyclic AMP; 5C9 100 µg/mL + TSH (fmol/cell well) is 2220.

And the cyclic AMP; 5C9 100 µg/mL only (fmol/cell well) [2]?
The cyclic AMP; 5C9 100 µg/mL only (fmol/cell well) was 195.

What about the Mutated/wild type (%); 5C9 0.01 µg/mL + TSH [3] of the same substance?
The Mutated/wild type (%); 5C9 0.01 µg/mL + TSH was 210%.

And the Mutated/wild type (%); 5C9 0.1 µg/mL + TSH [3]?
The Mutated/wild type (%); 5C9 0.1 µg/mL + TSH was 172%.

What about the Mutated/wild type (%); 5C9 1.0 µg/mL + TSH [3] of the same substance?
Its Mutated/wild type (%); 5C9 1.0 µg/mL + TSH is 95%.

What about the Mutated/wild type (%); 5C9 10 µg/mL + TSH [3] of the same substance?
Its Mutated/wild type (%); 5C9 10 µg/mL + TSH is 193%.

And the Mutated/wild type (%); 5C9 100 µg only [3]?
The Mutated/wild type (%); 5C9 100 µg only was 391%.

What about the Mutated/wild type (%); 5C9 100 µg/mL + TSH [3] of the same substance?
Its Mutated/wild type (%); 5C9 100 µg/mL + TSH is 149%.

What about the cyclic AMP; 5C9 0.01 µg/mL + TSH (fmol/cell well) [3] of the same substance?
Its cyclic AMP; 5C9 0.01 µg/mL + TSH (fmol/cell well) is 29000.

What about the cyclic AMP; 5C9 0.1 µg/mL + TSH (fmol/cell well) [3] of the same substance?
The cyclic AMP; 5C9 0.1 µg/mL + TSH (fmol/cell well) was 15600.

What about the cyclic AMP; 5C9 1.0 µg/mL + TSH (fmol/cell well) [3] of the same substance?
Its cyclic AMP; 5C9 1.0 µg/mL + TSH (fmol/cell well) is 3550.

What about the cyclic AMP; 5C9 10 µg/mL + TSH (fmol/cell well) [3] of the same substance?
The cyclic AMP; 5C9 10 µg/mL + TSH (fmol/cell well) was 1550.

And the cyclic AMP; 5C9 100 µg only (fmol/cell well) [3]?
The cyclic AMP; 5C9 100 µg only (fmol/cell well) was 785.

What about the cyclic AMP; 5C9 100 µg/mL + TSH (fmol/cell well) [3] of the same substance?
The cyclic AMP; 5C9 100 µg/mL + TSH (fmol/cell well) was 1600.

And the cyclic AMP; 5C9 0.01 µg/mL + TSH (fmol/cell well) [4]?
The cyclic AMP; 5C9 0.01 µg/mL + TSH (fmol/cell well) was 13800.

And the cyclic AMP; 5C9 0.1 µg/mL + TSH (fmol/cell well) [4]?
Its cyclic AMP; 5C9 0.1 µg/mL + TSH (fmol/cell well) is 9070.

And the cyclic AMP; 5C9 1.0 µg/mL + TSH (fmol/cell well) [4]?
The cyclic AMP; 5C9 1.0 µg/mL + TSH (fmol/cell well) was 3730.

And the cyclic AMP; 5C9 10 µg/mL + TSH (fmol/cell well) [4]?
The cyclic AMP; 5C9 10 µg/mL + TSH (fmol/cell well) was 802.

And the cyclic AMP; 5C9 100 µg only (fmol/cell well) [4]?
Its cyclic AMP; 5C9 100 µg only (fmol/cell well) is 201.

What about the cyclic AMP; 5C9 100 µg/mL + TSH (fmol/cell well) [4] of the same substance?
Its cyclic AMP; 5C9 100 µg/mL + TSH (fmol/cell well) is 1080.
